Measurements as given in publication PMC3328451, “Mycobacterium tuberculosis Rv3586 (DacA) Is a Diadenylate Cyclase That Converts ATP or ADP into c-di-AMP” (PLoS ONE, 2012).

Legend:
SEC = molecular target: the molecule itself; assay: SEC
[1] = molecular target: the molecule itself; assay: cross-linking; 1.5 µM protein in 50 mM sodium phosphate pH 7.4, 20% glycerol, 5 mM MgCl2, with 35 mM glutaraldehyde for 1 h at room temperature; SDS-PAGE and Western blot with the anti-DacA antibody
[2] = molecular target: the molecule itself; assay: AUC; sedimentation velocity, 4°C, 10% glycerol in PBS; DacA and DacA_(1–287) at 40 000 rpm, DacA_(140–358) at 50 000 rpm; mass by the c(M) method in SEDFIT

B1: Mycobacterium tuberculosis Rv3586 (DacA) (enzyme)
chain: MHAVTRPTLREAVARLAPGTGLRDGLERILRGRTGALIVLGHDENVEAICDGGFSLDVRYAATRLRELCKMDGAVVLSTDGSRIVRANVQLVPDPSIPTDESGTRHRSAERAAIQTGYPVISVSHSMNIVTVYVRGERHVLTDSATILSRANQAIATLERYKTRLDEVSRQLSRAEIEDFVTLRDVMTVVQRLELVRRIGLVIDYDVVELGTDGRQLRLQLDELLGGNDTARELIVRDYHANPEPPSTGQINATLDELDALSDGDLLDFTALAKVFGYPTTTEAQDSTLSPRGYRAMAGIPRLQFAHADLLVRAFGTLQGLLAASAGDLQSVDGIGAMWARHVREGLSQLAESTISDQ
notes: also called native DacA; not shown: His tag, C-terminal, kept
SEC
  stoichiometry N: 8

B2: DacA_(140–358) (domain or fragment)
chain: VLTDSATILSRANQAIATLERYKTRLDEVSRQLSRAEIEDFVTLRDVMTVVQRLELVRRIGLVIDYDVVELGTDGRQLRLQLDELLGGNDTARELIVRDYHANPEPPSTGQINATLDELDALSDGDLLDFTALAKVFGYPTTTEAQDSTLSPRGYRAMAGIPRLQFAHADLLVRAFGTLQGLLAASAGDLQSVDGIGAMWARHVREGLSQLAESTISDQ
notes: also called last 219 aa of DacA; DacA lacking the N-terminal Dac domain
[1]
  stoichiometry N: 2

B3: DacA_(1–287) (domain or fragment)
chain: MHAVTRPTLREAVARLAPGTGLRDGLERILRGRTGALIVLGHDENVEAICDGGFSLDVRYAATRLRELCKMDGAVVLSTDGSRIVRANVQLVPDPSIPTDESGTRHRSAERAAIQTGYPVISVSHSMNIVTVYVRGERHVLTDSATILSRANQAIATLERYKTRLDEVSRQLSRAEIEDFVTLRDVMTVVQRLELVRRIGLVIDYDVVELGTDGRQLRLQLDELLGGNDTARELIVRDYHANPEPPSTGQINATLDELDALSDGDLLDFTALAKVFGYPTTTEAQDS
notes: also called first 287 aa of DacA; DacA lacking the C-terminal HhH domain
[2]
  stoichiometry N: 4
